In patent EP2669372A1, “HPPD variants and methods of use” (Bayer CropScience AG, priority 2010, dated 2012):

Substrate: O=C(O)C(=O)Cc1ccc(O)cc1
Test: purified protein, by the assay type
Details: other: substrate HPP varied between 10 and 400 µM; SEQ ID No. 32; pH 7.8

B1: Arabidopsis thaliana HPPD "SEQ ID No. 32" (Arabidopsis thaliana) (protein)
chain: MGHQNAAVSENQNHDDGAASSPGFKLVGFSKFVRKNPKSDKFKVKRFHHIEFWCGDATNVARRFSWGLGMRFSAKSDLSTGNMVHASYLLTSGDLRFLFTAPYSPSLSAGEIKPTTTASIPSFDHGSCRSFFSSHGLGVRAVAIEVEDAESAFSISVANGAIPSSPPIVLNEAVTIAEVKLYGDVVLRYVSYKAEDTEKSEFLPGFERVEDASSFPLDYGIRRLDHAVGNVPELGPALTYVAGFTGFHQFAEFTADDVGTAESGLNSAVLASNDEMVLLPINEPVHGTKRKSQIQTYLEHNEGAGLQHLALMSEDIFRTLREMRKRSSIGGFDFMPSPPPTYYQNLKKRVGDVLSDDQIKECEELGILVDRDDQGTLLQIFTKPLGDRPTIFIEIIQRVGCMMKDEEGKAYQSGGCGGFGKGNFSELFKSIEEYEKTLEAKQLVG
Km: 6.3 µM
